Kd data for 3 molecules are collected here from publication PMC7515730.

Where a chain is given by its changes, count along the chain named.

For data set [1], the target named is T1, CSTF2 (CstF-64) RRM wild type (Homo sapiens, UniProt P33240 1-107).
T1 sequence: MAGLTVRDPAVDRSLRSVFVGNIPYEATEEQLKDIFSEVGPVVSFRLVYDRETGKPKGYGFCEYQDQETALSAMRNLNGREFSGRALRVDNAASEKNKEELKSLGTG
The data set can be described thus: fluorescence polarization.

Data set [2] addresses T2, CSTF2 D50A RRM (Homo sapiens, UniProt P33240 1-107, D50A).
T2 sequence: T1 sequence with D50A
Nature of the data set: fluorescence polarization.

Data set [3] addresses T2, CSTF2 D50A RRM. The data set can be described thus: ITC.
Data set [4] deals with T1, CSTF2 (CstF-64) RRM wild type. Nature of the data set: ITC.

B1: SVL RNA, 3'-fluorescein (ssRNA)
RNA: AUUUUAUGUUUCAGGU
With B1, in data set [1], binding was characterised by a dissociation constant (Kd) of 1450 ± 70 nM.

B2: (GU)8 RNA, 3'-fluorescein (ssRNA)
RNA: GUGUGUGUGUGUGUGU
Consider B2, for which the Kd worked out at 170 ± 10 nM in the data set with CSTF2 D50A RRM [2] and 260 ± 20 nM in data set [1].

B3: SVL RNA, unlabeled (ssRNA)
RNA: AUUUUAUGUUUCAGGU
In the case of B3, the figures for the Kd (in the data set with CSTF2 D50A RRM [3]; in data set [4]) were 698 ± 60 nM and 1520 ± 170 nM, respectively.
